From paper PMC9237128, “Molecular insights into intra-complex signal transmission during stressosome activation” (Communications Biology, 2022)

B1: Listeria innocua RsbR (LiRsbR) (natural protein)
chain: MYKDFANFIRTNKKDLLNNWMNEMEKQSDPLINDIAKEPMYEETSIEFVDLIVSNITENGSKFNEKLDDFAEKVVHLGWPIHFVTTGLRVFGLLVYTAMRDEDLFLKREEKPEDDAYYRFETWLSSMYNKVVTAYADTWEKTVSIQKSALQELSAPLLPIFEKISVMPLIGTIDTERAKLIIENLLIGVVKNRSEVVLIDITGVPVVDTMVAHHIIQASEAVRLVGCQAMLVGIRPEIAQTIVNLGIELDQIITTNTMKKGMERALALTNREIVEKEG
modifications: phosphothreonine at 241 (by ESI-MS-MS and cryo-EM density; seen only in RsbR protomers interacting with RsbS); Thr175 and Thr209 not phosphorylated
notes: RsbR of Listeria innocua, gene CAC96120.1; N-terminal sensory domain, linker helix and C-terminal STAS domain; also called RsbR1; source: E. coli BL21 Star (DE3), co-expressed with LiRsbS from pET11a, co-purified (DEAE, Resource Q, Superose 6 Increase SEC)
B2: Listeria innocua RsbS (LiRsbS) (natural protein)
chain: MGIPILKLGECLLISIQSELDDHTAVEFQEDLLAKIHETSARGVVIDITSIDFIDSFIAKILGDVVSMSKLMGAKVVVTGIQPAVAITLIELGITFSGVLSAMDLESGLEKLKQELGE
notes: RsbS of Listeria innocua, gene CAC96121.1; single STAS domain protein; Ser56 not phosphorylated in the structure; source: E. coli BL21 Star (DE3), co-expressed with LiRsbR from pET11a, co-purified (DEAE, Resource Q, Superose 6 Increase SEC)

How the values were obtained:
[1] = target: B2; assay: cryo-EM structure; co-expressed and co-purified LiRsbRS complex (monomeric form after SEC), 0.6 mg/mL; C1 map 4.2 Å, D2 map 3.87 Å, icosahedral map 3.45 Å; model built in the D2 map; conditions: both partners purified
[2] = target: the molecule itself; assay: as above

Row | Binder | stoichiometry N [1] [LiRsbR per LiRsbS] | binding result [2]
1 | B1 | 2 | binds
2 | B2 | – | binds
